Measured values published in the supplement of paper PMC10567573.
± gives the standard deviation.

Experiment: protein stability index of a GFP-peptide fusion (GPS, HEK-293T) (PSI 1-6); higher = more stable
Conditions: c terminus: a fixed tail appended
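Note: 24-mer peptide tiles fused after GFP, lentivirally expressed, FACS-sorted into six equal bins by GFP/DsRed ratio, decoded by Illumina sequencing, PSI is the read-weighted mean bin number.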

Sequence	protein stability index (treatment: DMSO)	protein stability index (treatment: MLN4924 1 uM, 8 h)
DFSMAEALNQEFLATRSNEKQELQ [PRPH]	5.05 ± 0.19	4.95 ± 0.27
PGIDIREDLAQKLNLEEDRIQIWF [HESX1]	2.55 ± 0.56	2.43 ± 0.41
RLLRDSEAFCHANCSGPAPAAKPD [P3H4]	4.01 ± 0.35	4.01 ± 0.47
SEEMIAEFKAAFDMFDADGGGDIS [TNNC2]	5.16 ± 0.32	5.11 ± 0.43
YLDLPGSRQGSAEALRALQEGLWL [PKD2L1]	2.71 ± 0.27	2.64 ± 0.34
SQEEGKSALEDQGSNPSSSNSSQD [PPFIA4]	5.67 ± 0.16	5.62 ± 0.28
LELAQFHNAHQLAAWCLHHICTNY [RHOBTB1]	2.7 ± 0.48	2.59 ± 0.43
RKCPVHGKTMELFCQTDQTCICYL [TRIM29]	2.94 ± 0.61	3.72 ± 0.59
LTKHEWTEALGCDPPLSQDERTHR [ZNF8]	4.6 ± 0.2	4.72 ± 0.17
EDLAQKLNLEEDRIQIWFQNRRAK [HESX1]	4.12 ± 0.55	4.11 ± 0.47
HSTSLKVPLARSLQISEELLSRNQ [LCOR]	4 ± 0.24	3.97 ± 0.099
SCIGNKQKAVKSCLVCQASFCELH [TRIM29]	3.51 ± 0.16	3.79 ± 0.34
LQCAMEENCLSASAAQTDPTTGYR [LOXL2]	3.59 ± 0.23	3.45 ± 0.29
TEPPQNPVTPLGLQNEVPPQPDPV [SERTAD3]	5.32 ± 0.26	5.48 ± 0.24
LEFAYYFRPGHLLANACLPVRTTN [ZSWIM9]	2.47 ± 0.67	2.25 ± 0.28
LGLFTLILTEPAQAQKCYRDLALV [INTS3]	3.14 ± 0.36	2.79 ± 0.35
LLVGGLPPGPDRLPSNLVQYYDDE [KLHL14]	4.17 ± 0.25	4.04 ± 0.087
CLGLSYDGLLGDNQIMPKTGFLII [MAGEA6]	3.01 ± 0.6	2.49 ± 0.44
YQTEQSLRQLVESDINSLRRILDE [KRT33B]	3.44 ± 0.16	3.61 ± 0.3
MKQGGAALEGSALANGRALSAGSP [DLX1]	4.67 ± 0.29	4.72 ± 0.13
KRKLDTILNLERDVEDLQRDKARL [NFE2L1]	4.36 ± 0.25	4.46 ± 0.17
KLLVVDRTRRLGNMKNGANDVKHH [PRKX]	3.23 ± 0.46	3.48 ± 0.15
KGDVEEVQGPGVVGEFPIISPGRV [FBXO3]	4.81 ± 0.27	4.8 ± 0.2

Sequence	protein stability index (treatment: DMSO)	protein stability index (treatment: MLN4924 1 uM, 8 h)
NNLTDRIVVIPGKVEEVSLPEQVD [CARM1]	5.1 ± 0.13	5.27 ± 0.23
YAMGITECDNMLMLLSVSQSMSEE [SEPHS2]	2.16 ± 0.31	2.44 ± 0.22
ASRLLTTALTSFCAKYTYPVCSAL [FANCE]	3.29 ± 0.58	3.34 ± 0.49
DTTELSSAERYNPRTNQWSPVVAM [KLHL20]	3.5 ± 0.17	3.7 ± 0.19
LTINPAKRITASEALKHPWICQRS [CAMK2D]	2.57 ± 0.1	2.72 ± 0.25
LFLKDVLGDEICCWSFYGQGRKIA [KCTD13]	2.64 ± 0.42	2.07 ± 0.55
LAAGSAVFDAMFNGGMATTSAEIE [BTBD1]	3.72 ± 0.35	3.75 ± 0.29
LGNGLLRKKTLVPGPPGSSRPVKG [FKBP8]	3.94 ± 0.12	4.05 ± 0.47
RGAQGVILVYDIANRWSFDGIDRW [RAB40B]	2.29 ± 0.65	2.19 ± 0.15
TFEYTLLQPPHESRPQPIYYGFSE [ADAMTSL2]	2.47 ± 0.28	2.58 ± 0.51
EESYYCRCHRGYTLDPNGKTCSRV [MATN2]	2.82 ± 0.53	3.09 ± 0.55
PLTSVCYPQDLPRPLRSREFPQFE [TRAF3IP2]	3.75 ± 0.27	3.62 ± 0.4
CRRSVRLALGRERLGEIHTLPLPA [SPSB1]	3 ± 0.17	2.98 ± 0.11
ILVNLQGTVVFLLSLFIPESPRWL [SLC22A15]	3.12 ± 0.14	3.23 ± 0.48
GGRAYQALHCPTGTEYTCKVYPVQ [TRIB3]	2.73 ± 0.3	2.76 ± 0.33
RQLPPPPTPANEERRGGLPPLPLH [WAS]	4.53 ± 0.22	4.52 ± 0.14
FIRCSLQCRDLVDEAKKFHLRPEL [KLHL12]	2.67 ± 0.8	2.82 ± 1.4
VLLNSLQQYRQDQRDGSKSEDELD [CCND2]	4.32 ± 0.18	4.15 ± 0.52
DKRNYPSLELDKMAHGYGEESEEE [CHGB]	5.63 ± 0.37	5.66 ± 0.19
SWAKSIPGFSSLSLSDQMSVLQSV [ESRRA]	2.5 ± 0.32	2.66 ± 0.17
RTIVKGYNENVYTEDGKLDIWSKS [MED27]	3.84 ± 0.35	3.91 ± 0.3
LEVINLLRKHRELCDVVLVVGAKK [KLHL20]	2.37 ± 0.48	2.41 ± 0.34
SLLVLIEPVAAGSGIPEVKCYLNG [CLCN6]	1.99 ± 0.92	2.44 ± 0.43

Sequence	protein stability index (treatment: DMSO)	protein stability index (treatment: MLN4924 1 uM, 8 h)
FLTLEKFTIHNYSHSRERPYKCVQ [PLAGL1]	2.68 ± 0.26	2.13 ± 0.24
HTFAGDDCQAGLNFADEDEAQAFR [WAS]	5.26 ± 0.18	4.92 ± 0.38
LGVFLDYEAGVLAFYDVTGGMSHL [TRIM14]	2.83 ± 0.5	2.98 ± 0.82
AFHDGQRSRLRPRDDLDRLGVFLD [TRIM14]	3.35 ± 0.26	3.66 ± 0.31
VNQDILENKESWDKILALVPETIH [PRIM1]	3.16 ± 0.19	2.85 ± 0.32
HMIQGAGSLEKALPIIQSNQVSSN [DLC1]	4.22 ± 0.23	4.27 ± 0.24
PKNDNVVIPECAHGGLYKPVQCHP [SMOC2]	3.44 ± 0.15	3.6 ± 0.36
QCPYCQRRFNENAADRHINFCKEQ [ZC2HC1A]	4.91 ± 0.38	5.09 ± 0.2
HDELLAEHIKSLLIKNNSLPRKRQ [INTS3]	5 ± 0.17	4.98 ± 0.2
DSGTCPEVDEEGFTVRPDVTQNST [FCHO1]	5.43 ± 0.28	5.4 ± 0.15
ISSTTCGRQLEKVPEKRDSGMTEV [SPATS1]	4.27 ± 0.24	4.38 ± 0.35
LYFATLRNRPKSTVNTHYFSIDEE [CDC14A]	2.11 ± 0.17	2.15 ± 0.32
PEAKVLHTKRLYRAVVEAVHRLDL [SMG5]	2.19 ± 0.3	2.17 ± 0.11
AGEAHMAADGETNGSCENSDASSH [EHMT1]	5.55 ± 0.36	5.69 ± 0.15
IRALLNLHTDVGSVRMRRAEKSVA [NEK8]	2.42 ± 0.21	2.53 ± 0.19
TSFEPEALGNLVEGMDFHRFYFEN [CAMK2B]	3.14 ± 0.27	3.18 ± 0.26
FVQILLALHHVHTHLILHRDLKTQ [NEK8]	2.98 ± 0.064	3.01 ± 0.2
SEREANDALNAYVCKGLPQHEEIC [INTS3]	4.56 ± 0.23	4.52 ± 0.25
LESLPTDPLLLILSFLDYRDLINC [FBXO3]	2.84 ± 0.61	2.85 ± 0.64
YSYRRLGEEALSLQALDPQQCVDK [SLC22A15]	4.05 ± 0.45	4.05 ± 0.31
SAVARSNSWMGSQGPMSQRRENYG [RBMY1A1]	3.68 ± 0.43	3.96 ± 0.5
GRCTVRDFIHRHCQDQNVPVENFF [SDE2]	2.51 ± 0.4	2.72 ± 0.049
RNGQWSEPPKCLDPCVISQEIMEK [CFHR2]	4.24 ± 0.063	4.07 ± 0.24

Sequence	protein stability index (treatment: DMSO)	protein stability index (treatment: MLN4924 1 uM, 8 h)
MCLFLQSLRQKQPERLCSGPGIVG [GMPPB]	2.27 ± 0.41	2.17 ± 0.46
HCLDQVGLFRKSGVKSRIQALRQM [DLC1]	2.48 ± 0.36	2.4 ± 0.25
IRGRYLVALGHAYHPEEFVCSQCG [PDLIM7]	2.51 ± 0.18	2.77 ± 0.3
LQDGRRKVHYLFPDGKEMAEEYDE [DPCD]	4.7 ± 0.064	4.72 ± 0.37
AYDLSSVIASGSSVGHNNLIPLAN [CARM1]	3.23 ± 0.4	3.09 ± 0.28
MSLVLHGNNLLVFGGTGIPFGESN [KLHDC10]	2.74 ± 0.69	2.81 ± 0.52
VPVDTGVAARTPAVEGLTEAEEEE [TPD52L2]	5.51 ± 0.15	5.4 ± 0.13
KEAKEFLVQLRNMVQQIQENSVEF [TRIM9]	2.29 ± 0.31	2.41 ± 0.23
RSYIKLFQAPCQRCGKFLQDGLPP [MED27]	2.19 ± 0.17	2 ± 0.1
FPDVPLGIFLFCVCVIAIGVVQAL [TMEM175]	2.63 ± 0.62	2.28 ± 1.2
KKEDCLKLLLFLSTELQASQILQN [FAM98B]	3.41 ± 1.1	
SFSNYRPFEPQALGLSPSWRLTGF [SEPHS2]	1.95 ± 0.2	2.01 ± 0.42
TDAPEQFISQVTVLKYFSHYMEEN [PLK2]	2.09 ± 0.28	2.15 ± 0.23
VPSKPPMSLEPQNGTYAGPAPAFQ [ANKRD40]	4.12 ± 0.41	4.25 ± 0.14
GRCIHAGCDRIIGSKKKFDKCMVC [ADAMTS4]	3.66 ± 0.41	3.56 ± 0.15
MKCLKVGMLKEGVRLDRVRGGRQK [ESRRG]	3.5 ± 0.092	3.73 ± 0.21
NDFVQVDPGQVGLINSNVSMVDLT [FAN1]	3.9 ± 0.39	4.24 ± 0.15
SKFRRKDREDSPERCSDSDEEKKA [CLINT1]	5.43 ± 0.27	5.47 ± 0.14
MNLDIVDLLKKAKFHHSDCLSTWL [RHOBTB3]	2.53 ± 0.4	2.44 ± 0.63
GLDSPPLYPSAPILGGSGPVRKLY [ESRRG]	3.37 ± 0.13	3.49 ± 0.24
